T1: mCry3A insecticidal protein (Bacillus thuringiensis subsp. …, UniProt P0A379 48-644, limits assumed)
T1 construct: also called modified Cry3A
T1 sequence: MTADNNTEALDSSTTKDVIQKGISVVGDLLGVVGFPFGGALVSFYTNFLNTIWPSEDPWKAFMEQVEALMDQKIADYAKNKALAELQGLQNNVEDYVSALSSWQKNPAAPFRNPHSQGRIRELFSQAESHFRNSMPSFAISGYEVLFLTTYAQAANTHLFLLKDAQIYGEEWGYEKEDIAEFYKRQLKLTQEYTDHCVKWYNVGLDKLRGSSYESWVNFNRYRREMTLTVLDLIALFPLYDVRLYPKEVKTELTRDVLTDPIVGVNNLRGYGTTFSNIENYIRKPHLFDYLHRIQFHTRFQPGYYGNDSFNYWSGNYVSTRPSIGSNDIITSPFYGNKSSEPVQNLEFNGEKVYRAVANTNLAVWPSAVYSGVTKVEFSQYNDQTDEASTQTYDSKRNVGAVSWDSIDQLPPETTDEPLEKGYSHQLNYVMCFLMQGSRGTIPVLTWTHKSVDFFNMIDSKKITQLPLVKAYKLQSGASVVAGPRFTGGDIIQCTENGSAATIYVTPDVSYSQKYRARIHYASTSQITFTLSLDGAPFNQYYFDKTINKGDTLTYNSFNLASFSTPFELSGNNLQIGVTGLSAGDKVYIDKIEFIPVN


Columns and labels:
[1] = molecular target: Cry1Ab.1Ca insecticidal protein; test: direct ELISA: protein coated at 500 ng/ml, 10 nM tagged synNAPS with SA-AP
[2] = molecular target: T2, Cry1Ab insecticidal protein (Bacillus thuringiensis, UniProt P0A370 1-615); test: as above
[3] = molecular target: Cry1Ai insecticidal protein; test: direct ELISA, coated protein, SA-AP, 405 nm
[4] = molecular target: T1, mCry3A insecticidal protein; test: direct ELISA, coated protein, SA-AP, 405 nm
[5] = molecular target: eCry3.1Ab hybrid insecticidal protein; test: direct ELISA, coated protein, SA-AP, 405 nm
[6] = molecular target: T3, Cry1Aa insecticidal protein (Bacillus thuringiensis subsp. aizawai, UniProt P0A367 12-1176); test: direct ELISA, coated protein, SA-AP, 405 nm
[7] = molecular target: T1, mCry3A insecticidal protein; test: sandwich ELISA: synNAPS on streptavidin plate, HRP-antibody detection; mCry3A 60 ng/ml
[8] = molecular target: T2, Cry1Ab insecticidal protein; test: sandwich ELISA: synNAPS on streptavidin plate, HRP-antibody detection; Cry1Ab 10 ng/ml
[9] = molecular target: T1, mCry3A insecticidal protein; test: affinity capture on synNAPS-13 streptavidin beads from corn leaf extract, eluate measured by ELISA
[10] = molecular target: Cry1Ab.1Ca insecticidal protein; test: direct ELISA, coated protein, SA-AP, 405 nm
[11] = molecular target: T2, Cry1Ab insecticidal protein; test: direct ELISA, coated protein, SA-AP, 405 nm
[12] = molecular target: Cry1Ai insecticidal protein; test: direct ELISA: protein coated at 500 ng/ml, 10 nM tagged synNAPS with SA-AP
[13] = molecular target: T1, mCry3A insecticidal protein; test: as above
[14] = molecular target: eCry3.1Ab hybrid insecticidal protein; test: as above
[15] = molecular target: T3, Cry1Aa insecticidal protein; test: as above
[16] = molecular target: T1, mCry3A insecticidal protein; test: direct binding ELISA with leaf extracts expressing synNAPS-13, A405
[17] = molecular target: T2, Cry1Ab insecticidal protein; test: as above
[18] = molecular target: eCry3.1Ab hybrid insecticidal protein; test: direct ELISA: eCry3.1Ab coated at 1 ug/ml, RGS-His HRP detection

Binder | Binding to Insecticidal Protein (read at 405 nm) [1] [absorbance 405 nm] | Binding to Insecticidal Protein (read at 405 nm) [2] [absorbance 405 nm] | binding result [3] | binding result [4] | binding result [5] | binding result [6] | Absorbance at protein concentration (ng/ml) [7] [absorbance 450 nm] | Absorbance at protein concentration (ng/ml) [8] [absorbance 450 nm] | Quantity of Protein (ng/ml) eluted from synNAPS-13 beads [9] [ng/mL] | binding result [10] | binding result [11] | Binding to Insecticidal Protein (read at 405 nm) [12] [absorbance 405 nm] | Binding to Insecticidal Protein (read at 405 nm) [13] [absorbance 405 nm] | Binding to Insecticidal Protein (read at 405 nm) [14] [absorbance 405 nm] | Binding to Insecticidal Protein (read at 405 nm) [15] [absorbance 405 nm] | binding result [16] | binding result [17] | Binding (OD 450 nm) [18] [OD 450 nm]
synNAPS-5tag ligand (designed binder, in vivo biotinylation (E. coli BirA strain) on the C-terminal avidin-tag, also called tagged synNAPS 5) MRGSHHHHHHGSVKVKFVLKGEEKEVDTSKITYVARYGKFVQFDYDDNGKFGAGVVLEKDAPKELLDMLARAEREKKLGSGLNDIFEAQKIEWH | 1.6 | 1.1 | no binding (tested: 10 nM) | no binding (tested: 10 nM) | no binding (tested: 10 nM) | no binding (tested: 10 nM) | – | – | – | – | – | – | – | – | – | – | – | –
synNAPS-13tag ligand (designed binder, in vivo biotinylation (E. coli BirA strain) on the C-terminal avidin-tag, also called tagged synNAPS 13) MRGSHHHHHHGSVKVKFKRWGEEKEVDTSKILHVLRVGKYVRFSYDDNGKLGAGYVTEKDAPKELLDMLARAEREKKLGSGLNDIFEAQKIEWH | – | – | no binding (tested: 10 nM) | no binding (tested: 10 nM) | – | no binding (tested: 10 nM) | 0 | 0 | 0 | no binding (tested: 10 nM) | no binding (tested: 10 nM) | – | – | – | – | – | – | –
synNAPS-11tag ligand (designed binder, in vivo biotinylation (E. coli BirA strain) on the C-terminal avidin-tag, also called tagged synNAPS 11) MRGSHHHHHHGSVKVKFGLGGEEKEVDTSKIRRVLRLGKLVSFTYDDNGKIGLGDVHEKDAPKELLDMLARAEREKKLGSGLNDIFEAQKIEWH | – | – | – | – | – | – | – | – | – | no binding (tested: 10 nM) | no binding (tested: 10 nM) | 0.7 | 2.9 | 1.5 | 0.6 | – | – | –
synNAPS-9tag ligand (designed binder, in vivo biotinylation (E. coli BirA strain) on the C-terminal avidin-tag, also called NsynNAPS9; tagged synNAPS 9) MRGSHHHHHHGSVKVKFAQGGEEKEVDTSKIYRVPRHGKIVFFMYDDNGKGGFGHVTEKDAPKELLDMLARAEREKKLGSGLNDIFEAQKIEWH | – | – | no binding (tested: 10 nM) | – | no binding (tested: 10 nM) | no binding (tested: 10 nM) | 2 | 0 | – | no binding (tested: 10 nM) | no binding (tested: 10 nM) | – | 0.7 | – | – | – | – | –
synNAPS-13 ligand (designed binder) MVKVKFKRWGEEKEVDTSKILHVLRVGKYVRFSYDDNGKLGAGYVTEKDAPKELLDMLARAEREKK | – | – | – | – | – | – | – | – | – | – | – | – | – | – | – | no binding | no binding | 4.1
synNAPS-2tag ligand (designed binder, in vivo biotinylation (E. coli BirA strain) on the C-terminal avidin-tag, also called tagged synNAPS 2) MRGSHHHHHHGSVKVKFKYKGEEKEVDTSKIVWIGRFGKSVYFRYDDNGKTGAGRVYEKDAPKELLDMLARAEREKKLGSGLNDIFEAQKIEWH | 1 | 1.8 | – | no binding (tested: 10 nM) | no binding (tested: 10 nM) | no binding (tested: 10 nM) | 0 | 4 | – | – | – | 2.5 | – | – | – | – | – | –
synNAPS-4tag ligand (designed binder, in vivo biotinylation (E. coli BirA strain) on the C-terminal avidin-tag, also called tagged synNAPS 4) MRGSHHHHHHGSVKVKFKYKGEEKEVDTSKISYVQRAGKSVYFNYDDNGKTGGGRVFEKDAPKELLDMLARAEREKKLGSGLNDIFEAQKIEWH | 0.75 | 1.75 | – | no binding (tested: 10 nM) | no binding (tested: 10 nM) | no binding (tested: 10 nM) | – | – | – | – | – | 2.6 | – | – | – | – | – | –

From patent publication US20210181204A1 (SYNGENTA PARTICIPATIONS, published 2021)
